Three molecules from patent publication US20220227876A1 (COUNCIL OF THE QUEENSLAND INSTITUTE OF MEDICAL RESEARCH, published 2022) can be followed below.

What all share (assay): cell-based or functional assay
Assay [1] concerns the target recombinant soluble human RANKL (human) (UniProt O14788).
The target of assay [2] is soluble mouse RANKL (mouse) (UniProt O35235).
Assay [3] addresses T1, mouse RANK on murine bone marrow cells (mouse, UniProt O35305 31-625).
T1 sequence (looked up): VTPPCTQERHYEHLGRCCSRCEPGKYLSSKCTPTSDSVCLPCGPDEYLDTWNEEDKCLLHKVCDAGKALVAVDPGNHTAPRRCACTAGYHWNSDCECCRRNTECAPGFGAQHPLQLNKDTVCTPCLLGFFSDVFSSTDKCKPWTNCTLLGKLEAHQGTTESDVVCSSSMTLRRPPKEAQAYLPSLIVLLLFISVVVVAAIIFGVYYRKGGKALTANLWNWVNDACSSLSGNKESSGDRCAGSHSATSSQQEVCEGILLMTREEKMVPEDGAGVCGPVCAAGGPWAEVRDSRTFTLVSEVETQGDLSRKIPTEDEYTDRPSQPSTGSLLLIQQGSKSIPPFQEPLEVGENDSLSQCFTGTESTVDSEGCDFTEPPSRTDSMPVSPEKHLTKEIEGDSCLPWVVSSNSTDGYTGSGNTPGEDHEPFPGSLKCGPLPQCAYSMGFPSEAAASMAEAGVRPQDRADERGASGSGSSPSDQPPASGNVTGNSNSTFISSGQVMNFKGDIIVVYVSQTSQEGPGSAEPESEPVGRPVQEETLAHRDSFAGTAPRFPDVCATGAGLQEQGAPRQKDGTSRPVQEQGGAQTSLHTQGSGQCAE

Where “and” joins values, the source holds several entries; their conditions need not be identical. Equal values may be shown once.

Chain of soluble mouse RANKL (mouse) (O35235 143-316 limits assumed): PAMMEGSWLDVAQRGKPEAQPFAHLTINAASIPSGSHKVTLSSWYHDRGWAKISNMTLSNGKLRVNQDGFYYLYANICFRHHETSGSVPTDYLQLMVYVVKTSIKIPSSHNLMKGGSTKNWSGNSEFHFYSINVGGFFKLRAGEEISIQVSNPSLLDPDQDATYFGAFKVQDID
Chain of recombinant soluble human RANKL (human) (O14788 143-317 limits assumed): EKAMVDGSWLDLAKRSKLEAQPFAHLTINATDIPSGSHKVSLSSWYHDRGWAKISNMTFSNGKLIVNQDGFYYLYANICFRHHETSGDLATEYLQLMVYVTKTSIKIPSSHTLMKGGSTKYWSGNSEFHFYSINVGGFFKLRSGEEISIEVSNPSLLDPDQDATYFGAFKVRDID

For “RANK-Fc (positive control in osteoclast assay) (Fc fusion)”, in assay [1], the IC50, huRANKL-induced osteoclast formation (TRAP+ multinucleated cells) is 0.092 µg/mL; the concentration for complete block of huRANKL-induced osteoclast formation was 500 ng/mL and 1000 ng/mL.

B1: anti-muRANKL IK22-5 mAb (antibody, from a related filing, V domains shown)
VH: QVQLKESGPGLVLSSATLSLTCTVSGFSLTNYDVSWIRHLPGKGLEWMGGVWLSGNTEYNSDFKSRLSISRDISKSQVFLKMSNLKIEDTGTYYCARDIGTTSDYWGQGVTVTVSS
VL: DIQVTQSPSFLSASVGDRVTFNCKTSQNINKYLAWYQAKFGEGPKLLIFNADSLQSGIPPRFSGSGSGTDFTLTISGLQPEDFATYFCLQYNSWPTFGSGTKLEIK
In assay [2], B1 registered an IC50, muRANKL-induced osteoclast formation (TRAP+ multinucleated cells) of 0.0198 µg/mL and a concentration for complete block of muRANKL-induced osteoclast formation of 62.5 to 125 ng/mL.

B2: anti-RANK 3A3 antibody (full-length IgG, human Fab on a mouse IgG2a Fc backbone) (antibody, V domains shown)
VH: EVQLVESGGGVVQPGTSLRLSCAASGFTFSSYAMHWVRQAPGKGLEWVAVVSYDGSTKSYADSMKGRFTISRDNSKNTLYLQMNSLRAEDTAVYYCAKDPALRYFDWGYFQHWGQGTLVTVSS
VL: SYELTQPPSVSVSPGQTASITCSGDKLGDKYVCWYQQKPGQSPVLVIYGDSERPSGIPERFSGSNSGNTATLTISGTRAVDEADYYCQAWDSTTPLFGGGTNLTVL
For B2, in assay [3], the “IC50, huRANKL-induced osteoclast formation (TRAP+ multinucleated cells)” value is 0.0035 µg/mL; the “IC50, muRANKL-induced osteoclast formation (TRAP+ multinucleated cells)” value turned out to be 0.0074 µg/mL; the “potency ratio from IC50s, huRANKL-induced osteoclast formation” value is about 25 fold; the “potency ratio from IC50s, muRANKL-induced osteoclast formation” value was about 2 fold.
